Experimental data: US20160368980A1, “INHIBITION OF GRANULOCYTE COLONY STIMULATING FACTOR IN THE TREATMENT OF CANCER” (STC.UNM, priority 2014, published 2016)

B1: G-CSF: recombinant G-CSF (eBioscience), pro-inflammatory cytokine (protein, UniProt P09920 31-208, looked up)
Granulocyte …: VPLVTVSALPPSLPLPRSFLLKSLEQVRKIQASGSVLLEQLCATYKLCHPEELVLLGHSLGIPKASLSGCSSQALQQTQCLSQLHSGLCLYQGLLQALSGISPALAPTLDLLQLDVANFATTIWQQMENLGVAPTVQPTQSAMPAFTSAFQRRAGGVLAISYLQGFLETARLALHHLA

Columns and labels:
Type in all cases: cell-based, human
MKN-45 and Caco-2 cells [1] = experiment: Aldefluor / CD44 staining of stem-like population by flow cytometry; conditions: for effect on G-CSF-induced stem marker expressing cell expansion (aldehyde dehydrogenase high, CD44): treatment with ERK1/2 or RSK inhibitor before G-CSF
Protocol: (§1) Flow Cytometry: Single-and multi-color immunostaining was performed according to standard surface and intracellular FACS staining Biolegend protocols (Biolegend, San Diego, Calif.). Anti-Ep-cam Alexa-Fluor 488 (Biolegend 9c4) was used for identification of epithelial cells. The purity of MF was analyzed by staining for CD90-PE (Biolegend Thyl) and α-smooth actin-FITC (R&D Systems 1C14206) for flow cytometry compared to isotype controls. Anti-G-CSFR-PE (clone 1 mm 741 Biolegend) and G-CSF-FITC (clone 85FSCSF eBioscience) were used for the analysis of G-CSFR surface expression and intracellular G-CSF after 4 hour exposure to Brefeldin A compared to isotype controls. Anti-proliferating cell nuclear antigen (PCNA) (clone PCNA01, Biolegend) was used as a proliferation marker. Cancer stem-like populations in carcinoma cell lines were examined by staining with Aldefluor (Stem Cell Technologies, Vancouver, BC) and anti-CD44-APC (Biolegend clone BJ18) using the manufacturer's Aldefluor staining protocol compared to isotype control. All samples were analyzed on a Guava easyCyte 8HT flow cytometer (Millipore, Bellerica, Md.), and analyzed using FCS Express software (DeNovo Software, Los Angeles, Calif.).
Therefore, assessment of MKN-45 and Caco-2 cells for a similar population was undertaken. […] Cells were also stained with CD44, since in gastric and colon cancers CD44 has also been shown on cells with stem-like features (Huang et al., 2009; Katsuno et al., 2012; Su et al., 2011b; Takaishi et al., 2009; Wakamatsu et al., 2012). To examine Aldefluor staining, cells were gated on the CD44 positive population. Then, another gate was set using the diethylaminobenzaldehyde (DEAB) inhibitor of aldehyde dehydrogenase as a negative control (FIG. 5A). […] G-CSF treatment expanded this population from 6% to 16% of the cell population (FIGS. 5C). Further, 48 hour treatment of MKN-45 and Caco-2 cells with 10 ng/ml of G-CSF led to an approximately 10% increase in the stem-like Aldefluor^highCD44^+population (FIG. 5D) with both cell types.
In parallel, ERK1/2 and RSK inhibition were also examined for effects on stem-like populations.

[2] = system: MKN-45 and Caco-2 carcinoma cells; experiment: G-CSF induced proliferation (CyQuant) with ERK1/2 or RSK inhibitors; conditions: 10 μM inhibitor, 30 min before recombinant G-CSF
Protocol: Proliferation: MKN-45, AGS, Caco-2 and DLD1 cells (2500 per well) were added to wells of a 96 well plate and incubated with 5-25 ng/ml of recombinant G-CSF (eBioscience) or conditioned media from MF for 48 hours. Conditioned media included a mixture of 50% media from cultured myofibroblasts and 50% fresh media for nutrients. Media from MF was taken when cells were 80% or greater confluent before passage (from approximately 1×10^6 cells). Proliferation was measured using CyQuant dye for DNA content (Life Technologies). […] Samples were read on a Tecan fluorescent plate reader (Mannedorf, Switzerland).
However, most of the studies have been performed in myeloid cells or neutrophils. Thus, we sought to examine G-CSFR signaling in MKN-45 and Caco-2 cells. […] Cells were lysed and protein levels normalized. […] A 5-fold increase in phosphorylation was found in MKN-45 and a 10-fold increase in phosphorylation was found in Caco-2 cells (FIGS. 6A and B). […] ERK1/2 or RSK inhibitors were added to some wells of cells before addition of G-CSF, and proliferation examined by CyQuant proliferation assay for DNA content.

[3] = system: MKN-45 and AGS gastric carcinoma cells; experiment: CyQuant proliferation assay for DNA content, gastric carcinoma cells; conditions: recombinant G-CSF 5-25 ng/ml, after 4 days, dose dependent
Protocol: (§2) Proliferation: MKN-45, AGS, Caco-2 and DLD1 cells (2500 per well) were added to wells of a 96 well plate and incubated with 5-25 ng/ml of recombinant G-CSF (eBioscience) or conditioned media from MF for 48 hours. Conditioned media included a mixture of 50% media from cultured myofibroblasts and 50% fresh media for nutrients. Media from MF was taken when cells were 80% or greater confluent before passage (from approximately 1×10^6 cells). Proliferation was measured using CyQuant dye for DNA content (Life Technologies). Other samples were incubated with 10 μM ERK activation inhibitor peptide 1 or RSK inhibitor SL0101 (EMD Millipore) for 30 min before addition of recombinant G-CSF. Samples were read on a Tecan fluorescent plate reader (Mannedorf, Switzerland).
(§3) MKN-45 and AGS gastric carcinoma cells and Caco-2 and DLD1 colon carcinoma cells were incubated with increasing doses of recombinant G-CSF (5-25 ng/ml), which were chosen based on reports of serum concentrations in patients (Morstyn et al., 1989). After 4 days (approximately 2 doubling times), proliferation was measured using the CyQuant fluorescent proliferation assay for DNA content. G-CSF treated cells were compared to untreated control cells. […] To further confirm G-CSF induction of cell proliferation, G-CSF treated cells were stained intracellularly for proliferating cell nuclear antigen (PCNA). […]

[4] = system: Caco-2 and DLD1 colon carcinoma cells; experiment: CyQuant proliferation assay for DNA content, colon carcinoma cells; conditions: recombinant G-CSF 5-25 ng/ml, after 4 days, Caco-2 and DLD1, dose dependent
Protocol: as §2, §3

[5] = system: gastric and colon carcinoma cells; experiment: Intracellular PCNA staining by flow cytometry; conditions: G-CSF treated cells, both cell types
Protocol: as §1, with “Cancer stem-like populations in carcinoma cell lines were examined by staining with Aldefluor (Stem Cell Technologies, Vancouver, BC) and anti-CD44-APC (Biolegend clone BJ18) using the manufacturer's Aldefluor staining protocol compared to isotype control.” left out
MKN-45 and AGS gastric carcinoma cells and Caco-2 and DLD1 colon carcinoma cells were incubated with increasing doses of recombinant G-CSF (5-25 ng/ml), which were chosen based on reports of serum concentrations in patients (Morstyn et al., 1989). After 4 days (approximately 2 doubling times), proliferation was measured using the CyQuant fluorescent proliferation assay for DNA content. […]

MKN-45 and Caco-2 cells [6] = experiment: Fluoroblok migration assay (8 micron pores, CFSE-labeled cells); conditions: 10 ng/ml G-CSF in bottom wells, 4 hours
Protocol: Migration: MKN-45 and Caco-2 cells were stained with carboxyfluorein succinimidyl ester (CFSE) (Life Technologies) and added to the top of Fluoroblok 96 well plates with […]. Serum free media, media with 10% FBS, recombinant G-CSF, or MF supernatants were added to the bottom of the wells. G-CSF neutralizing antibodies (1 μg/ml) were added to some cultures. The fluorescence of migrated cells was measured after 4 hours of incubation at 37° C. on a Tecan plate reader.
Given the ability of G-CSF to mobilize bone marrow derived hematopoietic cells during systemic administration (Held and Gundert-Remy, 2010), we assessed whether it could increase the migratory ability, and therefore the malignant potential, of gastric and colon cancer cells. MKN-45 and Caco-2 were serum starved overnight, fluorescently labeled with CFSE, and plated on FluorBlok™ plates with 8 micron pores and serum free media in the top of the wells. The bottom wells were filled with serum free media, serum free media containing 10 ng/ml of G-CSF or serum containing media (positive control). […] Both cell types migrated through the pores toward serum as a positive control, and at even higher rates toward G-CSF. […]

[7] = system: ERK1/2 and RSK1 phosphorylation in MKN-45 cells; experiment: Luminex signaling bead array, ERK1/2 and RSK1 phosphorylation, MKN-45; conditions: recombinant G-CSF 10 ng/ml
Protocol: (§4) Luminex Arrays: G-CSF levels were measured in cell culture supernatants by singleplex fluorescent bead based array (Life Technologies) according to manufacturer's instructions. ERK1/2 and RSK phosphorylation were measured by Milliplex MAPmates phospho-ERK1/2 and RSK arrays (EMD Millipore, Billerica Mass.) according to the manufacturer protocol. All samples were analyzed on a Luminex 200 machine.
(§5) Some studies have shown that G-CSFR signaling induces signaling pathways that lead to cell proliferation (Kamezaki et aL, 2005; Wang et al., 2008). However, most of the studies have been performed in myeloid cells or neutrophils. Thus, we sought to examine G-CSFR signaling in MKN-45 and Caco-2 cells. Cells were pre-incubated with serum free media for 2 hours before treatments and recombinant G-CSF (10 ng/ml) was added to wells in 15 min intervals. Cells were lysed and protein levels normalized. […] A 5-fold increase in phosphorylation was found in MKN-45 and a 10-fold increase in phosphorylation was found in Caco-2 cells (FIGS. 6A and B). […] Since we found phosphorylation of these signaling molecules after G-CSF treatment, we further sought to characterize the role of these pathways in the increased cell proliferation resulting from G-CSF treatment observed in MKN-45 and Caco-2 carcinoma cells shown in FIG. 3. […]

[8] = system: ERK1/2 and RSK1 phosphorylation in Caco-2 cells; experiment: Luminex signaling bead array, ERK1/2 and RSK1 phosphorylation, Caco-2; conditions: recombinant G-CSF 10 ng/ml
Protocol: as §4, §5

Row | Molecule | effect on G-CSF-induced stem marker expressing cell expansion (aldehyde dehydrogenase high, CD44) (MKN-45 and Caco-2 cells [1]) | effect on G-CSF induced proliferation [2] | increase in proliferation compared to untreated cells [3] | increase in proliferation compared to untreated cells [4] | increase in PCNA staining compared to untreated cells [5] | increased migration compared to serum containing media (MKN-45 and Caco-2 cells [6]) | increased migration compared to serum free media (MKN-45 and Caco-2 cells [6]) | increase in the stem-like Aldefluor high CD44+ population (MKN-45 and Caco-2 cells [1]; 48 hour treatment, 10 ng/ml G-CSF, MKN-45 and Caco-2 (both cell types)) | stem-like Aldefluor population, share of the cell population after G-CSF treatment (MKN-45 and Caco-2 cells [1]; MKN-45, gated on CD44 positive, untreated 6%) | increase in ERK1/2 and RSK1 phosphorylation [7] | incubation time of peak ERK1/2 and RSK1 phosphorylation [7] | increase in ERK1/2 and RSK1 phosphorylation [8] | incubation time of peak ERK1/2 and RSK1 phosphorylation [8]
1 | CC(=O)O[C@@H]1[C@@H](OC(C)=O)[C@@H](O)[C@H](Oc2c(-c3ccc(O)cc3)oc3cc(O)cc(O)c3c2=O)O[C@H]1C [RSK inhibitor, SL0101, reference compound] | completely abrogated | drastically inhibited | – | – | – | – | – | – | – | – | – | – | –
2 | ERK activation inhibitor peptide 1 [ERK1/2 inhibitor, reference compound] | completely abrogated | drastically inhibited | – | – | – | – | – | – | – | – | – | – | –
3 | B1 | – | – | ≤ 2.5 fold | up to 4.5 fold | greater than 2 fold | 1.5 fold | ≤ 4 fold | approximately 10% | 16% | 5 fold | 30 min | 10 fold | 30 min
